In data set [1] the target is N-cadherin-W2A fluorescent fusion protein (strand-swap mutant). Nature of the data set: FRET or BRET; ratiometric FRET (Venus to Cerulean fluorescence over time) at a junction between one Venus- and one Cerulean-expressing living COS7 cell; 100 ms interval for 35 sec; baseline 10-15 sec, then the Ca2+ chelator BAPTA added to 20 mM final. For orientation: Bioluminescence resonance energy transfer reports proximity on the nanometre scale.

Data set [2] deals with N-cadherin-V81D/V174D fluorescent fusion protein (cis double mutant). The description is as above.
The target is the same in data set [3]. Nature of the data set: FRET or BRET; acceptor bleach FRET at junctions between living COS7 cells of two mixed populations, one expressing the Venus (acceptor) and the other the Cerulean (donor) copy; trans interaction across the junction; FRET ratio = (IpostDonor - IpreDonor)/IpostDonor.
The target in data set [4] is N-cadherin-R14E fluorescent fusion protein (X-dimer mutant). Nature of the data set: FRET or BRET; ratiometric FRET (Venus to Cerulean fluorescence over time) at a junction between one Venus- and one Cerulean-expressing living COS7 cell; 100 ms interval for 35 sec; baseline 10-15 sec, then the Ca2+ chelator BAPTA added to 20 mM final.
Data set [5] has the same target. Nature of the data set: FRET or BRET; acceptor bleach FRET at junctions between living COS7 cells of two mixed populations, one expressing the Venus (acceptor) and the other the Cerulean (donor) copy; trans interaction across the junction; FRET ratio = (IpostDonor - IpreDonor)/IpostDonor.
Data set [6] addresses N-cadherin-W2A fluorescent fusion protein (strand-swap mutant). The data set is described as above.
Data set [7] concerns the molecule itself. Nature of the data set: FRET or BRET; ratiometric FRET (Venus to Cerulean fluorescence over time) at a junction between one Venus- and one Cerulean-expressing living COS7 cell; 100 ms interval for 35 sec; baseline 10-15 sec, then the Ca2+ chelator BAPTA added to 20 mM final.
Data set [8] concerns the molecule itself. Nature of the data set: FRET or BRET; acceptor bleach FRET at junctions between living COS7 cells of two mixed populations, one expressing the Venus (acceptor) and the other the Cerulean (donor) copy; trans interaction across the junction; FRET ratio = (IpostDonor - IpreDonor)/IpostDonor.

As to “N-cadherin-W2A fluorescent fusion protein (strand-swap mutant) (natural protein)”, in data set [1], the ratiometric FRET ratio before BAPTA amounted to 98.6%.

For “N-cadherin-V81D/V174D fluorescent fusion protein (cis double mutant) (natural protein)”, the ratiometric FRET ratio before BAPTA in data set [2] was found to be 99.6%. Further, the FRET ratio (acceptor bleach) in data set [3] worked out at 22.4%.

For the molecule “N-cadherin-R14E fluorescent fusion protein (X-dimer mutant) (natural protein)”, in data set [4], the ratiometric FRET ratio after 20 mM BAPTA came out at 98.8% and the ratiometric FRET ratio before BAPTA stood at 99.2%. The FRET ratio (acceptor bleach) in data set [5] came out at 14%.

Take “N-cadherin-W2A fluorescent fusion protein (strand-swap mutant)”: the FRET ratio (acceptor bleach) in data set [6] was found to be 29.4%.

B1: N-cadherin-WT fluorescent fusion protein (N-cadherin-Venus / N-cadherin-Cerulean) (natural protein, UniProt P15116 160-906, looked up)
chain: DWVIPPINLPENSRGPFPQELVRIRSDRDKNLSLRYSVTGPGADQPPTGIFIINPISGQLSVTKPLDRELIARFHLRAHAVDINGNQVENPIDIVINVIDMNDNRPEFLHQVWNGSVPEGSKPGTYVMTVTAIDADDPNALNGMLRYRILSQAPSTPSPNMFTINNETGDIITVAAGLDREKVQQYTLIIQATDMEGNPTYGLSNTATAVITVTDVNDNPPEFTAMTFYGEVPENRVDVIVANLTVTDKDQPHTPAWNAAYRISGGDPTGRFAILTDPNSNDGLVTVVKPIDFETNRMFVLTVAAENQVPLAKGIQHPPQSTATVSVTVIDVNENPYFAPNPKIIRQEEGLHAGTMLTTLTAQDPDRYMQQNIRYTKLSDPANWLKIDPVNGQITTIAVLDRESPNVKNNIYNATFLASDNGIPPMSGTGTLQIYLLDINDNAPQVLPQEAETCETPEPNSINITALDYDIDPNAGPFAFDLPLSPVTIKRNWTINRLNGDFAQLNLKIKFLEAGIYEVPIIITDSGNPPKSNISILRVKVCQCDSNGDCTDVDRIVGAGLGTGAIIAILLCIIILLILVLMFVVWMKRRDKERQAKQLLIDPEDDVRDNILKYDEEGGGEEDQDYDLSQLQQPDTVEPDAIKPVGIRRLDERPIHAEPQYPVRSAAPHPGDIGDFINEGLKAADNDPTAPPYDSLLVFDYEGSGSTAGSLSSLNSSSSGGDQDYDYLNDWGPRFKKLADMYGGGDD
notes: a fluorescent protein is inserted into the second extracellular cadherin repeat at position 151 of the mature protein; numbers count on: the mature protein; Self-association in trans: one cell population expresses the Venus copy (FRET acceptor), the other the Cerulean copy (FRET donor); both are written as this one molecule; also called N-cadherin-Venus-WT; WT-N-cadherin; source: COS7 cells, …
Turning to B1, in data set [7], the “ratiometric FRET ratio after 20 mM BAPTA” value was determined as 89.6% and the “ratiometric FRET ratio before BAPTA” value came out at 99.6%. In addition, in data set [8], the “FRET ratio (acceptor bleach)” value amounted to 19.9%.
